Eight sequences from the supplement of paper PMC11316812 can be followed below.

For one data set, the system named is MCF7. The data set is described as follows: percentage of EdU-negative (G0-arrested) nuclei per well, 72 h; higher = more G0 arrest. As to conditions: reference: sequence is the full UniProt precursor, the tested protein was the secreted form or ectodomain.
For a further data set, the system named is hTERT-HMEC. The description is as above. As to conditions: reference: sequence is the full UniProt precursor, the tested protein was the secreted form or ectodomain.
Setting [1] is: protein concentration 0.0225 µM.
The mark [2] stands for this setting: protein concentration 0.019925 µM.
[3] abbreviates: protein concentration 0.19925 µM.
Where [4] appears, read: protein concentration 0.020585 µM.
Where [5] appears, read: protein concentration 0.20585 µM.
[6] abbreviates: protein concentration 0.0065 µM.

± gives the standard deviation of the averaged measurements.
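Also: secreted proteins added to cultured cells, EdU pulse at the end, nuclei found by Hoechst imaging, EdU status from nuclear versus surrounding ring intensity ratio, PBS as neutral control.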

On to “MAVFKTTLWRLISGTLGIICLSLMSTLGILLKNSFTKLSIEPAFTPGPNIELQKDSDCCSCQEKWVGYRCNCYFISSEQKTWNESRHLCASQKSSLLQLQNTDELDFMSSSQQFYWIGLSYSEEHTAWLWENGSALSQYLFPSFETFNTKNCIAYNPNGNALDESCEDKNRYICKQQLI”, for which the “percentage of EdU-negative” value in the data set on MCF7 (setting [1]) worked out at 26.6 ± 3%; with MCF7 (protein concentration 0.225 µM), 25.3 ± 3.1%; in the data set with hTERT-HMEC (setting [1]), 4.98 ± 0.64%; in the data set on hTERT-HMEC (protein concentration 0.225 µM), 5.53 ± 0.17%.

Turning to “MAVGKFLLGSLLLLSLQLGQGWGPDARGVPVADGEFSSEQVAKAGGTWLGTHRPLARLRRALSGPCQLWSLTLSVAELGLGYASEEKVIFRYCAGSCPRGARTQHGLALARLQGQGRAHGGPCCRPTRYTDVAFLDDRHRWQRLPQLSAAACGCGG”, the “percentage of EdU-negative” value stood at 27.7 ± 0.63% with MCF7 (setting [2]), 26.7 ± 3.4% in the data set with MCF7 (setting [3]), 5.17 ± 0.068% with hTERT-HMEC (setting [2]) and 5.42 ± 0.64% with hTERT-HMEC (setting [3]).

As to “MAVKKIAIFGATGQTGLTTLAQAVQAGYEVTVLVRDSSRLPSEGPRPAHVVVGDVLQAADVDKTVAGQDAVIVLLGTRNDLSPTTVMSEGARNIVAAMKAHGVDKVVACTSAFLLWDPTKVPPRLQAVTDDHIRMHKVLRESGLKYVAVMPPHIGDQPLTGAYTVTLDGRGPSRVISKHDLGHFMLRCLTTDEYDGHSTYPSHQYQ”, the “percentage of EdU-negative” value with MCF7 (setting [1]) was found to be 22.7 ± 3%; with MCF7 (protein concentration 0.225 µM), 23.37 ± 0.19%; with hTERT-HMEC (setting [1]), 5.08 ± 0.64%; in the data set with hTERT-HMEC (protein concentration 0.225 µM) it was 5.64 ± 0.7%.

In the case of “MAVKLGTLLLALALGLAQPASARRKLLVFLLDGFRSDYISDEALESLPGFKEIVSRGVKVDYLTPDFPSLSYPNYYTLMTGRHCEVHQMIGNYMWDPTTNKSFDIGVNKDSLMPLWWNGSEPLWVTLTKAKRKVYMYYWPGCEVEILGVRPTYCLEYKNVPTDINFANAVSDALDSFKSGRADLAAIYHERIDVEGHHYGPASPQRKDALKAVDTVLKYMTKWIQERGLQDRLNVIIFSDHGMTDIFWMDKVIELNKYISLNDLQQVKDRGPVVSLWPAPGKHSEIYNKLSTVEHMTVYEKEAIPSRFYYKKGKFVSPLTLVADEGWFITENREMLPFWMNSTGRREGWQRGWHGYDNELMDMRGIFLAFGPDFKSNFRAAPIRSVDVYNVMCNVVGITPLPNNGSWSRVMCMLKGRASTAPPVWPSHCALALILLFLLA [Q6UWR7]”, the “percentage of EdU-negative” value was determined as 25.6 ± 0.4% in the data set with MCF7 (setting [1]), 27.791 ± 0.0037% with MCF7 (protein concentration 0.225 µM), 4.73 ± 0.19% with hTERT-HMEC (setting [1]) and 5.87 ± 0.68% in the data set on hTERT-HMEC (protein concentration 0.225 µM).

Regarding “MAVRQWVIALALAALLVVDREVPVAAGKLPFSRMPICEHMVESPTCSQMSNLVCGTDGLTYTNECQLCLARIKTKQDIQIMKDGKC”, the “percentage of EdU-negative” value is 26.2 ± 1.9% in the data set with MCF7 (setting [1]), 25.8 ± 0.45% with MCF7 (protein concentration 0.225 µM), 5.06 ± 0.67% with hTERT-HMEC (setting [1]) and 4.68 ± 0.28% with hTERT-HMEC (protein concentration 0.225 µM).

With “MAVRRDSVWKYCWGVLMVLCRTAISKSIVLEPIYWNSSNSKFLPGQGLVLYPQIGDKLDIICPKVDSKTVGQYEYYKVYMVDKDQADRCTIKKENTPLLNCAKPDQDIKFTIKFQEFSPNLWGLEFQKNKDYYIISTSNGSLEGLDNQEGGVCQTRAMKILMKVGQDASSAGSTRNKDPTRRPELEAGTNGRSSTTSPFVKPNPGSSTDGNSAGHSGNNILGSEVALFAGIASGCIIFIVIIITLVVLLLKYRRRHRKHSPQHTTTLSLSTLATPKRSGNNNGSEPSDIIIPLRTADSVFCPHYEKVSGDYGHPVYIVQEMPPQSPANIYYKV”, the “percentage of EdU-negative” value with MCF7 (setting [4]) worked out at 24.9 ± 1.2%; with MCF7 (setting [5]), 25.5 ± 0.9%; in the data set with hTERT-HMEC (setting [4]) it was 4.57 ± 1%; with hTERT-HMEC (setting [5]) it was 6.25 ± 0.37%.

As for “MAVVPLLLLGGLWSAVGASSLGVVTCGSVVKLLNTRHNVRLHSHDVRYGSGSGQQSVTGVTSVDDSNSYWRIRGKSATVCERGTPIKCGQPIRLTHVNTGRNLHSHHFTSPLSGNQEVSAFGEEGEGDYLDDWTVLCNGPYWVRDGEVRFKHSSTEVLLSVTGEQYGRPISGQKEVHGMAQPSQNNYWKAMEGIFMKPSELLKAEAHHAEL”, the “percentage of EdU-negative” value was determined as 24.7 ± 0.39% with MCF7 (setting [6]), 25.8 ± 1.1% in the data set on MCF7 (protein concentration 0.065 µM), 5.43 ± 0.74% with hTERT-HMEC (setting [6]) and 7.72 ± 0.45% in the data set with hTERT-HMEC (protein concentration 0.065 µM).

Regarding “MAWASRLGLLLALLLPVVGASTPGTVVRLNKAALSYVSEIGKAPLQRALQVTVPHFLDWSGEALQPTRIRILNVHVPRLHLKFIAGFGVRLLAAANFTFKVFRAPEPLELTLPVELLADTRVTQSSIRTPVVSISACSLFSGHANEFDGSNSTSHALLVLVQKHIKAVLSNKLCLSISNLVQGVNVHLGTLIGLNPVGPESQIRYSMVSVPTVTSDYISLEVNAVLFLLGKPIILPTDATPFVLPRHVGTEGSMATVGLSQQLFDSALLLLQKAGALNLDITGQLRSDDNLLNTSALGRLIPEVARQFPEPMPVVLKVRLGATPVAMLHTNNATLRLQPFVEVLATASNSAFQSLFSLDVVVNLRLQLSVSKVKLQGTTSVLGDVQLTVASSNVGFIDTDQVRTLMGTVFEKPLLDHLNALLAMGIALPGVVNLHYVAPEIFVYEGYVVISSGLFYQS [Q8N4F0]”, the “percentage of EdU-negative” value in the data set on MCF7 (setting [1]) is 25.8 ± 3.4%; in the data set with MCF7 (protein concentration 0.225 µM), 34.57 ± 0.04%; in the data set on hTERT-HMEC (setting [1]) it was 5.06 ± 0.73%; with hTERT-HMEC (protein concentration 0.225 µM) it was 15.4 ± 0.54%.
